{
  "source": "patent US20250215412A1",
  "about": "(NOVOZYMES A S, published 2025)",
  "molecules": {"B1": {"name": "Chryseobacterium defluvii propeptide, wildtype (other)", "chain": "ATNQDVVGKENTSNHVAARDFGKTVPVGINEENGTLKVSFILSAQFYEIKPSKENEEYISLIRQAIQNESPIHVFMKLNSNEIVKVEKGTEEDVKYFRSILTKEVKEENRK"}, "B2": {"name": "Chryseobacterium gambrini propeptide, wildtype (other)", "chain": "NQDPNLVVKENNENAMRDFGSTIPVGIQKEGNVLKVSFIISAQFYEIKDSKENEAFISMIKSAIENETPVHVFLKKNSNEIAKVEKATDEDVTYFKSIFTKEVKEENRK"}, "B3": {"name": "Chryseobacterium proteolyticum propeptide L100A (protein)", "chain": "NQEINGKEKLSVNDSKLKDFGKTVPVGIDEENGMIKVSFMLTAQFYEIKPTKENEQYIGMLRQAVKNESPVHIFLKPNSNEIGKVESASPEDVRYFKTIATKEVKEENRK"}, "B4": {"name": "Chryseobacterium proteolyticum propeptide, wildtype (other)", "chain": "NQEINGKEKLSVNDSKLKDFGKTVPVGIDEENGMIKVSFMLTAQFYEIKPTKENEQYIGMLRQAVKNESPVHIFLKPNSNEIGKVESASPEDVRYFKTILTKEVKEENRK"}, "B5": {"name": "Chryseobacterium proteolyticum propeptide L100G (protein)", "chain": "NQEINGKEKLSVNDSKLKDFGKTVPVGIDEENGMIKVSFMLTAQFYEIKPTKENEQYIGMLRQAVKNESPVHIFLKPNSNEIGKVESASPEDVRYFKTIGTKEVKEENRK"}, "B6": {"name": "Chryseobacterium sp-62563 propeptide F99G (protein)", "chain": "NQDPNLVAKESNETAMKDFGKTVPVGIEKEDGKFKISFMVTAQPYEIKDSKENAAYISMIKTAVENETPIHVFLKANTNEIAKVDKATDDDIRYFKSVGTKEVKEENRK"}, "B7": {"name": "Chryseobacterium culicis propeptide, wildtype (other)", "chain": "NQDPNLVAKESNEIAMKDFGKTVPVGIEKEEGKFKVSFMVSAQPYHIKDSKENAGYISMIRQAVENETPVHIFLKTNTNEIAKVDKPTDDDIRYFKSVFTKEVKEENRK"}},
  "assay_in_all_cases": "cell-based or functional assay",
  "key": {"[1]": {"biological_target": "Chryseobacterium culicis deamidase polypeptide, wildtype, with His-tag (Chryseobacterium culicis)"}, "[2]": {"biological_target": "T1, Chryseobacterium defluvii deamidase polypeptide, wildtype, with His-tag (Chryseobacterium defluvii)", "T1 chain": "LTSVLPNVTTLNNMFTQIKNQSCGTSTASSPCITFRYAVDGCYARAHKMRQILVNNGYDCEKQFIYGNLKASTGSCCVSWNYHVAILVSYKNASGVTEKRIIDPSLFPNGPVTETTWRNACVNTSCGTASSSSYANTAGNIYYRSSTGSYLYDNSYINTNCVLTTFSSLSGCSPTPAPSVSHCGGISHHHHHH"}, "[3]": {"biological_target": "T2, Chryseobacterium gambrini deamidase polypeptide, wildtype, with His-tag (Chryseobacterium gambrini)", "T2 chain": "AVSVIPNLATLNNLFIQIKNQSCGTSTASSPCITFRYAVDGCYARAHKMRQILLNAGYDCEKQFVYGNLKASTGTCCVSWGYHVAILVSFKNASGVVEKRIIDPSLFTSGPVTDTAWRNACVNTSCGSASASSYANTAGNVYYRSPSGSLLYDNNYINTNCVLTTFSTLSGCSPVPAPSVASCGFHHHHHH"}, "[4]": {"biological_target": "T3, Chryseobacterium proteolyticum deamidase polypeptide, wildtype, with His-tag (Chryseobacterium proteolyticum) (UniProt Q9AQQ8)", "T3 sequence": "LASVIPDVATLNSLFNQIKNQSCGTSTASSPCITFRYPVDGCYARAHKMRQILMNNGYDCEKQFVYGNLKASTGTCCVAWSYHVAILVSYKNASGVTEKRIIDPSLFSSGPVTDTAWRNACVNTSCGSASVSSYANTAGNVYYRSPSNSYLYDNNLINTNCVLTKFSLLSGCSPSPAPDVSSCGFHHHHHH"}, "[5]": {"biological_target": "T4, Chryseobacterium proteolyticum deamidase polypeptide, wildtype, with His-tag (Chryseobacterium proteolyticum, UniProt Q9AQQ8 136-320)", "T4 sequence": "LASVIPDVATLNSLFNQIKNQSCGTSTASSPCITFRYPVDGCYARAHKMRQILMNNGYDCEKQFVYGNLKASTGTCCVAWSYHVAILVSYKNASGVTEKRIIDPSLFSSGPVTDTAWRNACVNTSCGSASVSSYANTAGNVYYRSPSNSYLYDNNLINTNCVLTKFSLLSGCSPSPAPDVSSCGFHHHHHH"}, "[6]": {"biological_target": "T5, Chryseobacterium sp-62563 deamidase C169S (Chryseobacterium sp-62563)", "T5 sequence": "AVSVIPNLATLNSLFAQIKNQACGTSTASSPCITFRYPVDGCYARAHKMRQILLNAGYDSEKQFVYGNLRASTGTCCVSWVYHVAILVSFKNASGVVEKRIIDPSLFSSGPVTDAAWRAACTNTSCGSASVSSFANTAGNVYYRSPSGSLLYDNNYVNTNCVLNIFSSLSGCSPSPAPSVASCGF"}, "[7]": {"biological_target": "T6, Chryseobacterium sp-62563 deamidase C230H (Chryseobacterium sp-62563)", "T6 sequence": "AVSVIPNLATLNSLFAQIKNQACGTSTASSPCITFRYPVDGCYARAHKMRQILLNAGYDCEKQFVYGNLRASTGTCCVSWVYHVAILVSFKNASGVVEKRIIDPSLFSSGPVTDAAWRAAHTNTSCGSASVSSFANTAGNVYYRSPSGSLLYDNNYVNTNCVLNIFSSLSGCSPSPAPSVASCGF"}, "[8]": {"biological_target": "T7, Chryseobacterium sp-62563 deamidase polypeptide (second polypeptide, deamidase domain), wildtype (Chryseobacterium sp-62563)", "T7 sequence": "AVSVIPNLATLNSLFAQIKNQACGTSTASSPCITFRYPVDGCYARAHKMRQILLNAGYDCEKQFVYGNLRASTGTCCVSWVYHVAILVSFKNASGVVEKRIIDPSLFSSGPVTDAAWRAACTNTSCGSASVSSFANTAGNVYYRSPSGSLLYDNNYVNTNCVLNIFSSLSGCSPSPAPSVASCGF"}, "[9]": {"biological_target": "T8, Chryseobacterium culicis deamidase polypeptide, wildtype, with His-tag (Chryseobacterium culicis)", "T8 chain": "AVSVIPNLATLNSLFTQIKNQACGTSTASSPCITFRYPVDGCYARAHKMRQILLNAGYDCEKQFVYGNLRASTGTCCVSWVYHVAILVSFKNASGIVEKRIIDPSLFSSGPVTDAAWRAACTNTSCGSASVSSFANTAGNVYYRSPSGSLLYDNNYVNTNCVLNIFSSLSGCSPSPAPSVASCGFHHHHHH"}},
  "note": "Read-outs that look alike come from different tables or passages of the source.",
  "data": [
    {"molecule": "Chryseobacterium culicis propeptide F38C", "values": [
      {"measurement": "NanoDSF thermal unfolding temperature", "setting": "[1]", "result": 79.5, "unit": "° C."}
    ]},
    {"molecule": "Chryseobacterium culicis propeptide Y94P", "values": [
      {"measurement": "NanoDSF thermal unfolding temperature", "setting": "[1]", "result": 82.3, "unit": "° C."}
    ]},
    {"molecule": "B1", "values": [
      {"measurement": "NanoDSF thermal unfolding temperature", "setting": "[2]", "result": 89, "unit": "° C."}
    ]},
    {"molecule": "B2", "values": [
      {"measurement": "NanoDSF thermal unfolding temperature", "setting": "[3]", "result": 89.3, "unit": "° C."}
    ]},
    {"molecule": "B3", "values": [
      {"measurement": "NanoDSF thermal unfolding temperature", "setting": "[4]", "result": 80, "unit": "° C."}
    ]},
    {"molecule": "B4", "values": [
      {"measurement": "NanoDSF thermal unfolding temperature", "setting": "[5]", "result": 87.3, "unit": "° C."}
    ]},
    {"molecule": "B5", "values": [
      {"measurement": "NanoDSF thermal unfolding temperature", "setting": "[4]", "result": 77.3, "unit": "° C."}
    ]},
    {"molecule": "B6", "values": [
      {"measurement": "Leakage activity", "setting": "[6]", "result": 3, "unit": "%"},
      {"measurement": "Relative activity of maturated deamidase (% initial rate)", "setting": "[6]", "result": "> 100"},
      {"measurement": "Leakage activity", "setting": "[7]", "result": 0, "unit": "%"},
      {"measurement": "Leakage activity", "setting": "[8]", "result": 9, "unit": "%"},
      {"measurement": "NanoDSF thermal unfolding temperature", "setting": "[8]", "result": 74.1, "unit": "° C."},
      {"measurement": "Relative activity of maturated deamidase (% initial rate)", "setting": "[8]", "result": "> 100"}
    ]},
    {"molecule": "B7", "values": [
      {"measurement": "NanoDSF thermal unfolding temperature", "setting": "[9]", "result": 85.2, "unit": "° C."}
    ]}
  ]
}
